Measurements: patent publication US20060148057

B1: Flag-tagged Trx-WT (protein)
chain: MVKQIESKTAFQEALDAAGDKLVVVDFSATWCGPCKMIKPFFHSLSEKYSNVIFLEVDVDDCQDVASECEVKCMPTFQFFKKGQKVGEFSGANKEKLEATINELV
B2: HA-tagged ASK1-WT (protein)
chain: MSTEADEGITFSVPPFAPSGFCTIPEGGICRRGGAAAVGEGEEHQLPPPPPGSFWNVESAAAPGIGCPAATSSSSATRGRGSSVGGGSRRTTVAYVINEASQGQLVVAESEALQSLREACETVGATLETLHFGKLDFGETTVLDRFYNADIAVVEMSDAFRQPSLFYHLGVRESFSMANNIILYCDTNSDSLQSLKEIICQKNTMCTGNYTFVPYMITPHNKVYCCDSSFMKGLTELMQPNFELLLGPICLPLVDRFIQLLKVAQASSSQYFRESILNDIRKARNLYTGKELAAELARIRQRVDNIEVLTADIVINLLLSYRDIQDYDSIVKLVETLEKLPTFDLASHHHVKFHYAFALNRRNLPGDRAKALDIMIPMVQSEGQVASDMYCLVGRIYKDMFLDSNFTDTESRDHGASWFKKAFESEPTLQSGINYAVLLLAAGHQFESSFELRKVGVKLSSLLGKKGNLEKLQSYWEVGFFLGASVLANDHMRVIQASEKLFKLKTPAWYLKSIVETILIYKHFVKLTTEQPVAKQELVDFWMDFLVEATKTDVTVVRFPVLILEPTKIYQPSYLSINNEVEEKTISIWHVLPDDKKGIHEWNFSASSVRGVSISKFEERCCFLYVLHNSDDFQIYFCTELHCKKFFEMVNTITEEKGRSTEEGDCESDLLEYDYEYDENGDRVVLGKGTYGIVYAGRDLSNQVRIAIKEIPERDSRYSQPLHEEIALHKHLKHKNIVQYLGSFSENGFIKIFMEQVPGGSLSALLRSKWGPLKDNEQTIGFYTKQILEGLKYLHDNQIVHRDIKGDNVLINTYSGVLKISDFGTSKRLAGINPCTETFTGTLQYMAPEIIDKGPRGYGKAADIWSLGCTIIEMATGKPPFYELGEPQAAMFKVGMFKVHPEIPESMSAEAKAFILKCFEPDPDKRACANDLLVDEFLKVSSKKKKTQPKLSALSAGSNEYLRSISLPVPVLVEDTSSSSEYGSVSPDTELKVDPFSFKTRAKSCGERDVKGIRTLFLGIPDENFEDHSAPPSPEEKDSGFFMLRKDSERRATLHRILTEDQDKIVRNLMESLAQGAEEPKLKWEHITTLIASLREFVRSTDRKIIATTLSKLKLELDFDSHGISQVQVVLFGFQDAVNKVLRNHNIKPHWMFALDSIIRKAVQTAITILVPELRPHFSLASESDTADQEDLDVEDDHEEQPSNQTVRRPQAVIEDAVATSGVSTLSSTVSHDSQSAHRSLNVQLGRMKIETNRLLEELVRKEKELQALLHRAIEEKDQEIKHLKLKSQPIEIPELPVFHLNSSGTNTEDSELTDWLRVNGADEDTISRFLAEDYTLLDVLYYVTRDDLKCLRLRGGMLCTLWKAIIDFRNKQT

Assays:
[1] = biological target: Flag-ASK1-ΔN, Q99683
[2] = biological target: endogenous ASK1 of bovine aorta endothelial cells (BAEC), A0AAA9
[3] = biological target: GST-SOCS3-DC (1-138aa, deletion of the C-terminal SOCS box) [GST: P08515]
[4] = biological target: GST-SOCS3 (full-length) [GST: P08515]
[5] = biological target: GST-SOCS3-N (1-45aa) [GST: P08515]

Protein | ASK1 ubiquitination and degradation (Western blot with anti-Flag) [1] | ASK1 ubiquitination and degradation (Western blot; IP anti-ASK1, blot anti-Ub) [2] | phosphorylation in an in vitro kinase assay [3] | phosphorylation in an in vitro kinase assay [4] | phosphorylation in an in vitro kinase assay [5]
B1 | expression of Trx did not induce ubiquitination and degradation of ASK1 -ΔN, a mutant ASK1 lacking the N-terminal Trx-binding domain | Trx expression significantly increased ASK1 ubiquitination |  |  | 
B2 |  |  | only the full-length GST-SOCS3 was phosphorylated by ASK1 | only the full-length GST-SOCS3 was phosphorylated by ASK1 | only the full-length GST-SOCS3 was phosphorylated by ASK1
